In article PMC10703496 one finds Kd, koff and kon data, which are given here for five substances.

This assay concerns the target 6×His-tagged receptor-binding domain (RBD) of SARS-CoV-2 spike, B.1.617.2 (Delta) (SARS-CoV-2) (UniProt P0DTC2). The assay is described as follows: SPR. In general terms: SPR reads the build-up and loss of mass on a sensor chip optically.
The Kd is the concentration at which binding is half-saturated. As a reminder, the koff is the rate constant with which the complex falls apart. A word on the kon: it is a measure of how fast the partners come together. In turn, “ACE2(18–615)-QMP: monomeric ACE2 peptidase domain (residues 18–615) fused to the N-terminal end of QMP human albumin (from UniProt Q9BYF1-1;P02768)” showed an equilibrium dissociation constant (Kd) of 80.3 nM, a koff of 0.0258 s⁻¹ and a kon of 321000 M⁻¹ s⁻¹.

Consider “ACE2(18–615)-WT: monomeric ACE2 peptidase domain (residues 18–615) fused to the N-terminal end of fu (from UniProt Q9BYF1-1;P02768)”, for which the dissociation constant (Kd) is 175 nM, the koff was 0.0083 s⁻¹ and the kon is 47000 M⁻¹ s⁻¹.

As to “ACE2(18–740)-QMP: truncated dimeric human ACE2 (residues 18–740) fused to the N-terminal end of engi (from UniProt Q9BYF1-1;P02768)”, the Kd was 2 nM, the koff amounted to 0.00024 s⁻¹ and the kon was determined as 119000 M⁻¹ s⁻¹.

In turn, “ACE2(18–740)-WT: truncated dimeric human ACE2 (residues 18–740) fused to the N-terminal end of full- (from UniProt Q9BYF1-1;P02768)” yielded a Kd of 1.3 nM, a koff of 0.00021 s⁻¹ and a kon of 159000 M⁻¹ s⁻¹.

“ACE2-YTY-QMP: dimeric ACE2 with T27Y/L79T/N330Y (YTY) fused to QMP albumin (from UniProt Q9BYF1-1;P02768)” had a Kd of 0.2 nM, an off-rate constant (koff) of 4e-05 s⁻¹ and a kon of 201000 M⁻¹ s⁻¹.
